Test results reported in patent publication US20230357429A1 (JANUX THERAPEUTICS, published 2023).
Where no end group is shown, it is not given here.

T1: Peptide-16 (cysteine pairing not given here; also: biotinylated (site not given here))
T1 peptide: IDFCLLYDWPVCAS

T2: Peptide-15 (cysteine pairing not given here; also: biotinylated (site not given here))
T2 peptide: LDFCKLYQWPVCFT

T3: Peptide-11 (cysteine pairing not given here; also: biotinylated (site not given here))
T3 peptide: VDFCALYNWPVCET

T4: Peptide-24 (cysteine pairing not given here; also: biotinylated (site not given here))
T4 peptide: SVLFCVKNLYCWVT

T5: Peptide-22 (cysteine pairing not given here; also: biotinylated (site not given here))
T5 peptide: VDFCTIYKWPVCEG

T6: Peptide-19 (cysteine pairing not given here; also: biotinylated (site not given here))
T6 peptide: PDFCQLYNWPVCAG

T7: Peptide-21 (cysteine pairing not given here; also: biotinylated (site not given here))
T7 peptide: IDFCSLYQWPVCGT

T8: Peptide-30 (cysteine pairing not given here; also: biotinylated, site not given here)
T8 peptide: TSLICFRNVYCWNV

T9: Peptide-44 (cysteine pairing not given here; also: biotinylated, site not given here)
T9 peptide: VEFCKQWTWFGCMT

T10: Peptide-58 (cysteine pairing not given here; also: biotinylated, site not given here)
T10 peptide: VEICKQWFYTVCLS

T11: Peptide-29 (cysteine pairing not given here; also: biotinylated, site not given here)
T11 peptide: SYLVCVKNVYCWTA

T12: Peptide-25 (cysteine pairing not given here; also: biotinylated (site not given here))
T12 peptide: VDFCKIYSWPVCHQ


Legend:
Peptide-16 = biological target: T1, Peptide-16; assay: ELISA: biotinylated peptide captured on neutravidin plate, Fab titrated, HRP secondary antibody
Description: (§1) Binding was measured in a standard ELISA format. […] Bound TBDs were detected using a standard horse radish peroxidase conjugate secondary antibody. The ELISA signal was plotted versus the log-scale concentration of TBD. The concentrations of TBD required to observe half maximal binding signal (EC₅₀s) were calculated using Graphpad Prism software.

Peptide-15 = biological target: T2, Peptide-15; assay: as above
Description: as §1

Peptide-11 = biological target: T3, Peptide-11; assay: as above
Description: as §1

Peptide-24 = biological target: T4, Peptide-24; assay: as above
Description: as §1

Peptide-22 = biological target: T5, Peptide-22; assay: as above
Description: as §1

Peptide-19 = biological target: T6, Peptide-19; assay: as above
Description: as §1

Peptide-21 = biological target: T7, Peptide-21; assay: as above
Description: as §1

Peptide-30 = biological target: T8, Peptide-30; assay: ELISA, Fab on captured biotin-peptide
Description: as §1

Peptide-44 = biological target: T9, Peptide-44; assay: ELISA, Fab on captured biotin-peptide
Description: as §1

Peptide-58 = biological target: T10, Peptide-58; assay: ELISA, Fab on captured biotin-peptide
Description: as §1

Peptide-29 = biological target: T11, Peptide-29; assay: ELISA: biotinylated peptide captured on neutravidin plate, Fab titrated, HRP secondary antibody
Description: as §1

Peptide-25 = biological target: T12, Peptide-25; assay: ELISA, Fab on captured biotin-peptide; Table 18 peptide set (separate ELISA run)
Description: as §1

Binder	binding result (Peptide-16)	binding result (Peptide-15)	binding result (Peptide-11)	binding result (Peptide-24)	binding result (Peptide-22)	binding result (Peptide-19)	binding result (Peptide-21)	EC50 (Peptide-30) [nM]	EC50 (Peptide-44) [nM]	EC50 (Peptide-58) [nM]	binding result (Peptide-29)	EC50 (Peptide-25) [nM]
TBD-1 wt (Fab, V domains shown, Fab; the heavy chain entry is VH-CH1; also called wild-type anti-TROP2 Fab (hRS7); TROP2 Fab) VH: QVQLQQSGSELKKPGASVKVSCKASGYTFTNYGMNWVKQAPGQGLKWMGWINTYTGEPTYTDDFKGRFAFSLDTSVSTAYLQISSLKADDTAVYFCARGGFGSSYWYFDVWGQGSLVTVSS VL: DIQLTQSPSSLSASVGDRVSITCKASQDVSIAVAWYQQKPGKAPKLLIYSASYRYTGVPDRFSGSGSGTDFTLTISSLQPEDFAVYYCQQHYITPLTFGAGTKVEIKR	binds	binds	binds	binds	binds	binds	binds	9.1				
TBD-11 (HC R98A) (Fab, V domains shown, Fab; also called HC R98A mutant) VH: QVQLQQSGSELKKPGASVKVSCKASGYTFTNYGMNWVKQAPGQGLKWMGWINTYTGEPTYTDDFKGRFAFSLDTSVSTAYLQISSLKADDTAVYFCAAGGFGSSYWYFDVWGQGSLVTVSS VL: DIQLTQSPSSLSASVGDRVSITCKASQDVSIAVAWYQQKPGKAPKLLIYSASYRYTGVPDRFSGSGSGTDFTLTISSLQPEDFAVYYCQQHYITPLTFGAGTKVEIKR									112	10.7	binds	1000
